The series concerns the molecule itself. Description: non-reducing SDS-PAGE.

These results are taken from paper doi:10.1101/2024.02.12.579961 (bioRxiv, 2024).

B1: MBP-tagged IAA19/MSG2, recombinant (natural protein, Arabidopsis thaliana, UniProt O24409 1-197, looked up)
chain: MEKEGLGLEITELRLGLPGRDVAEKMMKKRAFTEMNMTSSGSNSDQCESGVVSSGGDAEKVNDSPAAKSQVVGWPPVCSYRKKNSCKEASTTKVGLGYVKVSMDGVPYLRKMDLGSSQGYDDLAFALDKLFGFRGIGVALKDGDNCEYVTIYEDKDGDWMLAGDVPWGMFLESCKRLRIMKRSDATGFGLQPRGVDE
Turning to B1, the binding result is recorded as “binds”.

B2: MBP-tagged IAA3/SHY2 (wild type), recombinant (natural protein, Arabidopsis thaliana, UniProt Q38822 1-189, looked up)
chain: MDEFVNLKETELRLGLPGTDNVCEAKERVSCCNNNNKRVLSTDTEKEIESSSRKTETSPPRKAQIVGWPPVRSYRKNNIQSKKNESEHEGQGIYVKVSMDGAPYLRKIDLSCYKGYSELLKALEVMFKFSVGEYFERDGYKGSDFVPTYEDKDGDWMLIGDVPWEMFICTCKRLRIMKGSEAKGLGCGV
Regarding B2, the binding result is given as “binds”.
